Measurements published in US20230011916A1, “METHODS OF CANCER TREATMENT USING ANTI-OX40 ANTIBODIES IN COMBINATION WITH PI3 KINASE DELTA INHIBITORS” (BEIGENE, LTD., priority 2019, published 2023).

T1: recombinant OX40 protein with a His tag (Homo sapiens, UniProt P43489)
T1 construct: His tag; purchased Sino Biological 10481-H08H
T1 sequence (P43489 29-277): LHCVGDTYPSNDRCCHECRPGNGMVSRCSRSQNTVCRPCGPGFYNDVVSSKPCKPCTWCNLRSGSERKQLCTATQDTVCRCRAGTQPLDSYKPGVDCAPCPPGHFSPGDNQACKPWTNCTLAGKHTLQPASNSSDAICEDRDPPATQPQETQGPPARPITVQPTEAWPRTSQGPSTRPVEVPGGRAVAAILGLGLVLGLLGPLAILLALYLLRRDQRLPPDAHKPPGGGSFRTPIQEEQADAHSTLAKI

T2: interaction between OX40 and OX40 ligand (Mus musculus, UniProt P47741)
T2 sequence (P47741 20-272): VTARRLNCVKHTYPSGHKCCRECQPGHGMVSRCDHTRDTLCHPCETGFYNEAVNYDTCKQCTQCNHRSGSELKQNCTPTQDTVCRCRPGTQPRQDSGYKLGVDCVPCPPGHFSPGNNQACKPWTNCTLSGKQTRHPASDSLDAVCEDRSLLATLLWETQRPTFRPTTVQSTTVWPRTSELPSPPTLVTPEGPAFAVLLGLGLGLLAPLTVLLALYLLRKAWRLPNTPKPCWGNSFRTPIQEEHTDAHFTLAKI
T2 sequence (P43488 1-198 partner): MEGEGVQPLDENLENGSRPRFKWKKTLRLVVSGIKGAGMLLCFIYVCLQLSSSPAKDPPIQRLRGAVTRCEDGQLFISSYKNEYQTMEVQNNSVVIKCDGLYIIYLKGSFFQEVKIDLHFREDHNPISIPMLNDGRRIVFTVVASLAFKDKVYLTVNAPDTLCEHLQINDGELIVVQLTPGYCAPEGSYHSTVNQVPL


Columns and labels:
[1] = target: T1, recombinant OX40 protein with a His tag; test: Binding kinetics and affinity of anti-OX40 antibodies by SPR (BIAcore T-200)
Excerpt: The anti-OX40 antibodies were characterized for their binding kinetics and affinity by SPR assays using BIAcore™ T-200 (GE Life Sciences). Briefly, anti-human IgG antibody was immobilized on an activated CM5 biosensorchip (Cat: BR100530, GE Life Sciences). An antibody with human IgG Fc region was flowed over the chip surface and captured by anti-human IgG antibody. Then a serial dilution of recombinant OX40 protein with a His tag (Cat: 10481-H08H, Sino Biological) was flowed over the chip surface and changes in surface plasmon resonance signals were analyzed to calculate the association rates (ka) and dissociation rates (kd) by using the one-to-one Langmuir binding model (BIA Evaluation Software, GE Life Sciences). The equilibrium dissociation constant (KD) was calculated as the ratio kd/ka.

[2] = test system: EMT-6 cells; test: EMT-6 syngeneic breast cancer model in BALB/c mice; format: in vivo, mouse
Experimental: EMT-6 cells are of murine breast cancer origin. Female BALB/c mice were implanted intramammary with 5×10^4 EMT-6 cells per 100 μL PBS mice in the second right papilla. After inoculation, mice were randomized into 4 groups with 25 animals in each group according to inoculation order.
The mice were treated with vehicle (0.5% MC), OX86 (a murine specific anti-OX40 antibody), Compound 1 (PI3Kdelta inhibitor), and the combination of OX86 and Compound 1, respectively. OX86 was given at 0.4 mg/kg once per week (QW) by intraperitoneal (i.p.) injection, and Compound 1 was administered at 30 mg/kg twice per day (BID) by oral gavage (p.o.). Tumor volume was determined twice weekly and tumor growth inhibition was determined using the formula described in Example 14 above.

[3] = test system: A20 cells; test: A20 syngeneic B cell lymphoma model in BALB/c mice; format: in vivo, mouse; conditions: Compound 1 10 mg/kg p.o.
Experimental: A20 cells are of B cell lymphoma origin. Female BALB/c mice were subcutaneously implanted with 1×10^5 A20 cells in 150 μL PBS mice in the right flank. After inoculation, mice were randomized into 4 groups with 25 animals in each group according to inoculation order. The mice were treated with vehicle (0.5% MC), OX86 (a murine specific anti-OX40 antibody), Compound 1, and the combination of OX86 and Compound 1. OX86 was given at 0.4 mg/kg once a week by intraperitoneal injection, and Compound 1 was administered at 10 mg/kg twice a day by oral gavage. Tumor volume was determined twice weekly and the TGI calculated as described above.

[4] = target: T2, interaction between OX40 and OX40 ligand; conditions: reported in the scientific literature; cited from earlier work
[5] = OX86 0.4 mg/kg QW i.p., Compound 1 30 mg/kg BID p.o.

KA ([1]; Mean)	KA ([1]; Test 1)	ka ([1]; Test 1)	kd ([1]; Test 1)	KA ([1]; Test 2)	ka ([1]; Test 2)	kd ([1]; Test 2)	Molecule	Mean Tumor Volume on Day 22 (mean ± SEM) [2, 5]	Tumor Free Animal [2, 5]	TGI on Day 22 ([2]; OX86 0.4 mg/kg QW×4 i.p., Compound 1 30 mg/kg BID×22 p.o.)	Mean Tumor Volume on Day 26 (mean ± SEM) ([3]; OX86 0.4 mg/kg QW i.p.)	Tumor Free Animals at Day 47 ([3]; OX86 0.4 mg/kg QW i.p.)	TGI on Day 26 ([3]; OX86 0.4 mg/kg QW×4 i.p.)	Blocking of the interaction between OX40 and OX40 ligand [4]
5.9e+07 M⁻¹	5.6e+07 M⁻¹	156000 M⁻¹ s⁻¹	0.00277 s⁻¹	6.1e+07 M⁻¹	237000 M⁻¹ s⁻¹	0.00389 s⁻¹	445-1: humanized anti-OX40 antibody, human IgG1 wt, VH SEQ ID NO: 14, VL SEQ ID NO: 16 (antibody, V domains shown, human IgG1 constant regions; 445-1 VH pro; 445-1 VK pro) VH: QVQLVQSGAEVKKPGSSVKVSCKASGYKFTSYIIHWVRQAPGQGLEWMGYINPYNDGTRYNQKFQGRVTLTSDKSTSTAYMELSSLRSEDTAVYYCARGYYGSSYAMDYWGQGTTVTVSS VL: DIQMTQSPSSLSASVGDRVTITCSASQGISNYLNWYQQKPGKAIKLLIYDTSTLYSGVPSRFSGSGSGTDYTLTISSLQPEDFATYYCQQYSKLPYTFGGGTKVEIK							
7.5e+07 M⁻¹	7.1e+07 M⁻¹	276000 M⁻¹ s⁻¹	0.0039 s⁻¹	7.8e+07 M⁻¹	206000 M⁻¹ s⁻¹	0.00264 s⁻¹	445-2: humanized anti-OX40 antibody, VH SEQ ID NO: 20, VL SEQ ID NO: 22 (antibody, V domains shown, 445-2 VH pro; 445-2 VK pro) VH: QVQLVQSGAEVKKPGSSVKVSCKASGYKFTSYIIHWVRQAPGQGLEWMGYINPYNEGTRYAQKFQGRVTLTADKSTSTAYMELSSLRSEDTAVYYCARGYYGSSYAMDYWGQGTTVTVSS VL: DIQMTQSPSSLSASVGDRVTITCSASQGISNYLNWYQQKPGKAIKLLIYDASTLYSGVPSRFSGSGSGTDFTLTISSLQPEDFATYYCQQYSKLPYTFGGGTKVEIK							
1.41e+08 M⁻¹	1.22e+08 M⁻¹	174000 M⁻¹ s⁻¹	0.00143 s⁻¹	1.59e+08 M⁻¹	265000 M⁻¹ s⁻¹	0.00167 s⁻¹	ch445: Mu445 variable domains fused to human IgG1wt/kappa constant regions (antibody, V domains shown) VH: EVQLQQSGPELVKPGASVKMSCKASGYKFTSYIIHWVKQKPGQGLEWIGYINPYNDGTRYNEKFKGKATLTSDKSSSTAYMEYSSLTSEDSAVYYCARGYYGSSYAMDYWGQGTSVTVSS VL: DIQMTQTTSSLSASLGDRVTISCSASQGISNYLNWYQQKPDGTIKLLIYDTSTLYSGVPSRFSGSGSGTDYFLTISNLEPEDIATYYCQQYSKLPYTFGGGTKLEKK							
							OX86: rat anti-mouse OX40 antibody (WO2016/057667) engineered with mouse IgG2a constant regions; VH SEQ ID NO: 32, VL SEQ ID NO: 33 (antibody, V domains shown, mouse IgG2a constant regions) VH: QVQLKESGPGLVQPSQTLSLTCTVSGFSLTGYNLHWVRQPPGKGLEWMGRMRYDGDTYYNSVLKSRLSISRDTSKNQVFLKMNSLQTDDTAIYYCTRDGRGDSFDYWGQGVMVTVSS VL: DIVMTQGALPNPVPSGESASITCRSSQSLVYKDGQTYLNWFLQRPGQSPQLLTYWMSTRASGVSDRFSGSGSGTYFTLKISRVRAEDAGVYYCQQVREYPFTFGSGTKLEIK	210.5 ± 43.9 mm^3	40%	79%	53.4 ± 28.7 mm^3	80%	93%	does not block the interaction between OX40 and OX40 ligand
